In patent US20030124152A1:

Target: Human collagen Type I (acid soluble) (human) (UniProt P02452)
Experiment: cell-based or functional assay

UniProt P02452, sequence (P02452 162-1218 limits assumed, chain 1 of 2): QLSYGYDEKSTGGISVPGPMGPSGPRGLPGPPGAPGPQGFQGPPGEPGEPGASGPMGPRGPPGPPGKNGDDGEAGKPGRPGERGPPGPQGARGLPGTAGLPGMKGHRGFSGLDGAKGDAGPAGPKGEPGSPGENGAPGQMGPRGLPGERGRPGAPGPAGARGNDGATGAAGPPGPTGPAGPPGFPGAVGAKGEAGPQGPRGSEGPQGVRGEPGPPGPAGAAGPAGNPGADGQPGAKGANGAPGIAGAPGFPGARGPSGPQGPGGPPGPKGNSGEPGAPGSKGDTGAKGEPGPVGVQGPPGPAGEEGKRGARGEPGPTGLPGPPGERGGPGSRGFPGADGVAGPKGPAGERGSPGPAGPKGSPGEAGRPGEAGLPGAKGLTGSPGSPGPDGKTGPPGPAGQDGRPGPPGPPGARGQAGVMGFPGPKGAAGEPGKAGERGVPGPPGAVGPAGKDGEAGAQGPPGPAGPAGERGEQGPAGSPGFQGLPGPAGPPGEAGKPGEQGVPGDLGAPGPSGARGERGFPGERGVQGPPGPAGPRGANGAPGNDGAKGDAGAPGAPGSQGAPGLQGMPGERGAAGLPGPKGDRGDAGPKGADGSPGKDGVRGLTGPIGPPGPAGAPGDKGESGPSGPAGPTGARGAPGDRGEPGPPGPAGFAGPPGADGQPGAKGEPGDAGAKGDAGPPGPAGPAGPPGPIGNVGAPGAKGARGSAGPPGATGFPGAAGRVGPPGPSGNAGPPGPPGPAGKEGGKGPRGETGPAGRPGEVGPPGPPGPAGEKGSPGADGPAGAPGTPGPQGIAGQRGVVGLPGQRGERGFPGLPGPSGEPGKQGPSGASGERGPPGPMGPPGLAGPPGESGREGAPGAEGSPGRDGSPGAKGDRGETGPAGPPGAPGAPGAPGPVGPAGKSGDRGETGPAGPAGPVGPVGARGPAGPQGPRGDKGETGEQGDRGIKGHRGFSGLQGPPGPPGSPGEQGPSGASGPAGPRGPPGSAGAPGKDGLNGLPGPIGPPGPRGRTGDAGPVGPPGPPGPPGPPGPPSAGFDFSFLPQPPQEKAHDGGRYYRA
UniProt P02452, sequence (P08123 80-1119 limits assumed, chain 2 of 2, further chain): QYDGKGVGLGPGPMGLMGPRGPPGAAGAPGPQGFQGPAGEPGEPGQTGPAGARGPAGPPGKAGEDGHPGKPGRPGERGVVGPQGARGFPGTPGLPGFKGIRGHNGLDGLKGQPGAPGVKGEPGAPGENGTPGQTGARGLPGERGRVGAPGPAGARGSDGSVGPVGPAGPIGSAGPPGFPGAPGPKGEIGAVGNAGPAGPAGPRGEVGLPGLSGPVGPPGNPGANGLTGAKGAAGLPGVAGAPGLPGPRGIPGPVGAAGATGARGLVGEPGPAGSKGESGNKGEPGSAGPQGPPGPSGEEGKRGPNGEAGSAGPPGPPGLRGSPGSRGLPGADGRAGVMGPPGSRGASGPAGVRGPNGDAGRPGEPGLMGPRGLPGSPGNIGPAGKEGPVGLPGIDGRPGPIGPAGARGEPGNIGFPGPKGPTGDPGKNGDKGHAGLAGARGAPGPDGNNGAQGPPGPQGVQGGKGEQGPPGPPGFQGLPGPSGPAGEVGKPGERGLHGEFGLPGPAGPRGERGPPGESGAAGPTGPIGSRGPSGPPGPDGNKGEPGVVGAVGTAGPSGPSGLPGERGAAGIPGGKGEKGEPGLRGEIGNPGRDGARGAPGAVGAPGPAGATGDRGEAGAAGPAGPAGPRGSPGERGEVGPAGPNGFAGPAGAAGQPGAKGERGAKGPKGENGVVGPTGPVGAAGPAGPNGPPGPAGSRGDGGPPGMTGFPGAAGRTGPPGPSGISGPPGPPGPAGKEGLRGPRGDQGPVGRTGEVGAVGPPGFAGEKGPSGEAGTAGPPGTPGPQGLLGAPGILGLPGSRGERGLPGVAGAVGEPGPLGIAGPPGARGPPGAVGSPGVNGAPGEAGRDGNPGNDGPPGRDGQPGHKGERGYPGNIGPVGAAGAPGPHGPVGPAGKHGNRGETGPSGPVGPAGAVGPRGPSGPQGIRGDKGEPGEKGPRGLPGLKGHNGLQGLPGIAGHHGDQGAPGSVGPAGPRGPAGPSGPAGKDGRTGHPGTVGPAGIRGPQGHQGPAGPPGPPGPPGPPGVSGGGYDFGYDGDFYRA

- Collagen Protection Assay, collagen band density, C + D + Z, 0 min (optical density/mm^2): 10.4
- Collagen Protection Assay, collagen band density, C + D + Z, 30 min (optical density/mm^2): 9.37
- Collagen Protection Assay, collagen band density, C + D + Z, 60 min (optical density/mm^2): 5.89
- Collagen Protection Assay, collagen band density, C + D + Z, 90 min (optical density/mm^2): 1.67
- Collagen Type I Degradation Rate (%), C + D + Z, 30 min: 9.49%
- Collagen Type I Degradation Rate (%), C + D + Z, 60 min: 37.1%
- Collagen Type I Degradation Rate (%), C + D + Z, 90 min: 71.6%
B1: human decorin core protein (HDCP) (protein)
chain: VEASGIGPEVPDDRDFEPSLGPVCPFRCQCHLRVVQCSDLGLDKVPKDLPPDTTLLDLQNNKITEIKDGDFKNLKNLHALILVNNKISKVSPGAFTPLVKLERLYLSKNQLKELPEKMPKTLQELRAHENEITKVRKVTFNGLNQMIVIELGTNPLKSSGIENGAFQGMKKLSYIRIADTNITSIPQGLPPSLTELHLDGNKISRVDAASLKGLNNLAKLGLSFNSISAVDNGSLANTPHLRELHLDNNKLTRVPGGLAEHKYIQVVYLHNNNISVVGSSDFCPPGHNTKKASYSGVSLFSNPVQYWEIQPSTFRCVYVRSAIQLGNYK
modifications: possible initiator Met
